Measured values taken from PMC6858872 (Nature structural & molecular biology, 2019).
Values joined by “and” are separate entries in the source; they are usually repeats but may differ in a detail not shown here. Equal entries are not always repeated. Where two headings read alike, the source gives them in different places.

Experiments:
SEC = target: the molecule itself; assay: SEC
YFP-BiP [1] = target: T1, YFP-BiP (human, UniProt P11021 28-654); assay: FRET or BRET
YFP-BiP [2] = target: T1, YFP-BiP; assay: FRET or BRET; remark: listed apart in the source
YFP-BiP [3] = target: T1, YFP-BiP; assay: FRET or BRET; remark: listed apart in the source

Ki of the high concentration phase (Ki^High) (YFP-BiP [1])	Ki of the high concentration phase (Ki^High) (YFP-BiP [2])	Ki of the high concentration phase (Ki^High) (YFP-BiP [3])	Binder	stoichiometry N (SEC)
–	–	–	IRE1 LD (human IRE1 luminal domain, 32-440) (domain or fragment) LLFVSTLDGSLHAVSKRTGSIKWTLKEDPVLQVPTHVEEPAFLPDPNDGSLYTLGSKNNEGLTKLPFTIPELVQASPCRSSDGILYMGKKQDIWYVIDLLTGEKQQTLSSAFADSLCPSTSLLYLGRTEYTITMYDTKTRELRWNATYFDYAASLPEDDVDYKMSHFVSNGDGLVVTVDSESGDVLWIQNYASPVVAFYVWQREGLRKVMHINVAVETLRYLTFMSGEVGRITKWKYPFPKETEAKSKLTPTLYVGKYSTSLYASPSMVHEGVAVVPRGSTLPLLEGPQTDGVTIGDKGECVITPSTDVKFDPGLKSKNKLNYLRNYWLLIGHHETPLSASTKMLERFPNNLPKHRENVIPADSEKKSFEEVINLVDQTSENAPTTVSRDVEEKPAHAPARPEAPVDSM	2 and 4
5.2 ± 0.6 µM	4.3 ± 0.4 µM	0.2 ± 0.01 µM	CH1 (immunoglobulin fragment, inherently misfolded without CL) (domain or fragment) not shown	–
